Assays:
Assay in all cases: negative stain EM reconstruction
[1] = molecular target: A/Hong Kong/1/1968 (H3N2) HA (influenza A virus A/Hong Kong/1/1968 (H3N2)) (UniProt Q91MA7)
[2] = molecular target: A/Netherlands/219/2003 (H7N7) HA (influenza A virus A/Netherlands/219/2003 (H7N7)) (UniProt Q6VMK1)
[3] = molecular target: A/South Carolina/1/1918 (H1N1) HA (influenza A virus A/South Carolina/1/1918 (H1N1)) (UniProt Q9WFX3)
[4] = molecular target: Wisc66/H9 HA (influenza A virus, Wisc66 (H9))

Measured: stoichiometry N (Fabs per HA trimer)

Fab CR9114
3: all assays above

Reference: article PMC3538841
